# Test results taken from patent US20230348555A1 (H LEE MOFFITT CANCER CENTER AND RESEARCH INSTITUTE, published 2023).
# Columns and labels:
# [1] = molecular target: T1, CD33/Siglec 3 chimeric fusion protein (ectodomain of CD33 fused to the Fc portion of human IgG1, with a … (Homo sapiens; human, UniProt P20138 18-259); test: immunoprecipitation of BM cell lysates from MDS patients with CD33-fusion, then mass spectrometry (FIG. 3A)
# T1 construct: extracellular domain; also called CD33-fusion; CD33-IgG; not shown: Fc region of human IgG1 (human Fc gamma) from the expression vector; C-terminal recognition site for E. coli biotin ligase
# Text: Therefore, to identify potential ligand(s) for this receptor, a chimeric fusion protein with the ectodomain of CD33 and the Fe portion of human IgG (here on referred to as CD33-fusion) was produced. BM cell lysates from MDS patients were immunoprecipitated with the CD33-fusion followed by high throughput mass-spectrometric analysis on associated peptides. S100A9, an inflammatory signaling molecule known to activate MDSC, was among the most prominent protein bands identified (FIG. 3A). To confirm the specificity of the binding of this DAMP to CD33 both S100A8 and S100A9 transfectants were prepared in the rhabdomyosarcoma cell line SJCRH30, which lacks detectable expression of endogenous CD33, S100A8 or S100A9. […] To validate clinically the ligand specificity in MDS patients, the pull-down was compared with CD33-fusion from healthy PBMC and BM as well as MDS patients. As expected, the highest amount of S100A9 was precipitated from the BM of MDS patient specimens (FIG. 3F). Next, to understand the kinetics of S100A9 and CD33 interactions, SJCRH30 cells were transfected with either vector or CD33 and incubated with recombinant human (rh) S100A9 tagged with DDK ([…] epitope, same epitope as Flag).
# [2] = molecular target: T2, CD33 (Siglec 3) expressed in cells (human, UniProt P20138 18-364); test: reverse immunoprecipitation: S100A9 IP from CD33/S100A9 co-transfected SJCRH30 lysate, blotted for CD33 (FIG. 3E)
# T2 construct: whole, on cells; In the co-immunoprecipitations it stood in cell lysates; also called SJCRH30-CD33 cells; CD33 on MDS-MDSC
# [3] = molecular target: T1, CD33/Siglec 3 chimeric fusion protein …; test: immunofluorescence staining of transfected SJCRH30 cells with CD33-fusion and anti-human IgG1-APC (FIG. 3B)
# Protocol: Immunofluorescence was detected using a Zeiss automated upright fluorescence microscope and images captured by a Nikon camera with the Capture Program AxioVision. Detailed methods for immuno-staining on S100A9 transfected SJCRH30 cells have been published previously (Chen, X., et al. 2008. Blood 113(14):3226-34). Specifically, SJCRH30 cells, which lack detectable expression levels of both CD33 and S100A9, were transfected with either S100A9 or S100A8 (negative control) for 48-72 hours. After incubation with CD33-fusion for 30 min (2 μg/ml), 1×10⁴ cells were cytospinned onto slides and then stained with a secondary anti-human IgG1-APC before analysis by immunofluorescence microscopy. Similarly, SJCRH30 cells, stable-transfected with CD33, were incubated with rhS100A9 tagged with DDK for various time points and stained by the same methodology before analysis.
# S100A9 is a native ligand for CD33. […] Therefore, to identify potential ligand(s) for this receptor, a chimeric fusion protein with the ectodomain of CD33 and the Fe portion of human IgG (here on referred to as CD33-fusion) was produced. BM cell lysates from MDS patients were immunoprecipitated with the CD33-fusion followed by high throughput mass-spectrometric analysis on associated peptides. S100A9, an inflammatory signaling molecule known to activate MDSC, was among the most prominent protein bands identified (FIG. 3A). […]
binding result [1],binding result [2],Binder,binding result [3]
binds,binds,"S100A9 (ligand, human, UniProt P06702 1-114, looked up, One entry covers both the endogenous protein of human specimens and the protein expressed from transfected cDNA; also called MRP-14; calgranulin-B) MTCKMSQLERNIETIINTFHQYSVKLGHPDTLNQGEFKELVRKDLQNFLKKENKNEKVIEHIMEDLDTNADKQLSFEEFIMLMARLTWASHEKMHEGDEGPGHHHKPGLGEGTP",
,,"S100A8 (ligand, UniProt P05109 1-93, looked up, also called MRP-8; calgranulin A) MLTELEKALNSIIDVYHKYSLIKGNFHAVYRDDLKKLLETECPQYIRKKGADVWFKELDINTDGAVNFQEFLILVIKMGVAAHKKSHEESHKE",no binding (tested: 2 µg/ml CD33-fusion for 30 min)
